From the supplement of paper PMC9170038

How the values were obtained:
[1] = test system: MS2 coat protein; assay: apparent KD of MS2 coat protein, switch ON state; designed switch direction (-1 OFF switch, 1 ON switch): -1; higher = weaker reporter binding; details: FMN input: 0 or 200 uM; Eterna round: R93 (includes R88 designs)
Procedure, shortened: (§1)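 Apparent KD is reported per design as the median of normalised binding-curve fits across its clusters. The RNA switches were made by on-chip transcription from Illumina sequencing clusters. SNAP-549-labelled MS2 coat protein was then added in twofold steps (0.7 or 1.5 nM to 3 µM; 0.8–1.5 h to 10–20 min per step) in 100 mM Tris-HCl pH 7.5, 80 mM KCl, 4 mM MgCl2, without or with constant ligand.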

[2] = test system: MS2 coat protein; assay: apparent KD of MS2 coat protein, switch OFF state (with FMN for OFF switches, without FMN for ON switches); designed switch direction (-1 OFF switch, 1 ON switch): -1; higher = weaker reporter binding; details: FMN input: 0 or 200 uM; Eterna round: R93 (includes R88 designs)
Procedure, shortened: as §1

Row | Sequence | apparent KD of MS2 coat protein [1] [µM] | apparent KD of MS2 coat protein [2] [µM]
1 | AAAAAAAGAGGAUAUACGAACAUGUCAAAAGACGUGAAGGGACAUGAGGAUCACCCAUGUAGAAGGCUUAAAAA [JL Part Open 28] | 0.0387 | 0.0263
2 | AACUGCGCAGGAUAUACAUGAGGAUCACCCAUGUAAAGAAAAGAAAGAUCCGAAGAAAGUAGAAGGGCGUGGAA [Variant 2 of Mod 1 of Ex3 sub 3, by Tesla's Dusciple Round 1] | 0.0432 | 0.0563
3 | AAAAAGGGAGGAUAUACAUGAGGAUCACCCAUGUAAAAAAAAAAAGGAGGGAGGGAAGGUAGAAGGCCCAAAAA [Excls3-IIi] | 0.0177 | 0.0246
4 | GAUUAGUGAGGAUAUACAUGAGGAUCACCCAUGUGUAAAAAAAAACGCAAAAAAGAAUGUAGAAGGCACUAAAG [Mat - Exclusion 3 - Mayanna mod - D103] | 0.0216 | 0.0314
5 | AGUUGGCGAGGAUAUACAUGAGGAUCACCCAUGUAAAAUAAAUAAAAAGGGAAAGAAAGUAGAAGGCGCUGACA [73%, Moding Norbert Elias, 10] | 0.0424 | 0.0833
6 | AGCUAGUCAGGAUAUACGAACAUGUCAAAAGACGUGAAGGGACAUGAGGAUCACCCAUGUAGAAGGGACUAGCA [WEB mod] | 0.0354 | 0.138
7 | AAGAAUGCAGGAUAUACAUGAAAGAAAGAAAAGAAAAGAAAACAUGAGGAUCACCCAUGUAGAAGGGCAUAGAA [EteRNA is fun!] | 0.0268 | 0.0441
8 | AGCUAGUCAGGAUAUACGAACAUGUCAAAAGACGUGAAGGGACAUGAGGAUCACCCAUGUAGAAGGGACUAGCU [salish99-Ex2-20] | 0.0288 | 0.106
9 | ACAGUUACAGGAUAUACAUGGGUGAAAAAAGUAUAUCCACUACAUGAGGAUCACCCAUGUAGAAGGGUAACUGA [Ex2 Design 174: Random 3] | 0.0186 | 0.0123
10 | AACUGACAUGAGGAUCACCCAUGUCAGGAUAUGAUUUGACGAAAUAAAAUAAGUCAUAUCAGAAGGGACAUGGG [Design 83: Sub-opt VB] | 0.0262 | 0.0212
11 | AGCAAGAGAGGAUAUACAUAGGAAAAAAAAGUUAGAUCCCUACAUGAGGAUCACCCAUGUAGAAGGCUCUGGCA [Ex2 Design 153: Sub-opt 17] | 0.0422 | 0.0371
12 | GGUUGACGAGGAUAUACAUGAGGAUCACCCAUGUGAGAGAAAAAAGUGAGAAAGAAAAGUAGAAGGCGUUGACG [salish99-ex3-59] | 0.0369 | 0.0918
13 | AACCAACAUGAGGAUCACCCAUGUCAGGAUAUGCAAAUAACAAACAACAAACAACAAAGCAGAAGGGACAACAA [Mat - Exclusion 1 - Eli mod - D50] | 0.0154 | 0.0205
14 | AAAACACAUGAGGAUCACCCAUGUGAGGAUAUCGUGCAGUAGACGAAAGUCUACUGCACGAGAAGGCACAAGGA [Tweaking Brourd] | 0.033 | 0.0502
15 | AUAGUAGGAGGAUAUACAUAGAUACAGAUACAUGUAGACGUACAUGAGGAUCACCCAUGUAGAAGGCCUAUGAA [Mat - Same state - Mayanna Mod - D149] | 0.126 | 0.116
16 | AAAAAACAUGAGGAUCACCCAUGUGAGGAUAUCGCUAGUCAGUCAUCAGAGUGAGUGAUGAGAAGGCACAUAAA [Brourd 613 Mod 6 - Jieux - Exclusion 1] | 0.0263 | 0.0319
17 | AACUGACAUGAGGAUCACCCAUGUCAGGAUAUGACUUGAUAGAAAAUAAAAUAUCAUGUCAGAAGGGACAUGAA [Design 61: Sub-opt KB] | 0.0143 | 0.0124
18 | AUAGGUCGAGGAUAUACAUGAGGAUCACCCAUGUAAAUAAAUAAAUAAAACUCCACAAGUAGAAGGCGAAAUAA [JR_Exc003_Sub201] | 0.0281 | 0.0226
19 | AAAAAGUGAGGAUAUGGUAAAAAAAAAAAAAAAAAAAAAAUCCAGAAGGCACAUGAGGAUCACCCAUGUAAAAA [Jolly Cotton - Jieux - Exclusion 4] | 0.0462 | 0.0297
20 | AAGAAGUGAGGAUAUACAUGAGGAUCACCCAUGUAAAGAAGAAGAGGAGAGAAUAAAGGUAGAAGGCACAAGAA [JR_Exclusion3_Sub4] | 0.0336 | 0.0396
21 | UCAGGUGGAGGAUAUACAGCUCGAUCCUGGAAUAAAACGGCACAUGAGGAUCACCCAUGUAGAAGGCCACAAAA [Texeussoat] | 0.0189 | 0.0551
22 | AAAAAACAUGAGGAUCACCCAUGUGAGGAUAUGCAAAAAAAAAAAAAAAAAAAAAAAAGCAGAAGGCGCAAAAA [4 GC Strong] | 0.0206 | 0.0389

Row | Sequence | apparent KD of MS2 coat protein [1] [µM] | apparent KD of MS2 coat protein [2] [µM]
23 | AAAAAGUUAGGAUAUACAUGAGGAUCACCCAUGUACAUAAAUGGAGAAAAAAACAGUAGUAGAAGGGACAAAAA [EX2 Malc#11] | 0.0238 | 0.0222
24 | AAAAUACAUGAGGAUCACCCAUGUGAGGAUAUGAGAAAGGGAAUAAAAUAACCCAAACUCAGAAGGCACAAAAA [Ex 1 May 26] | 0.0358 | 0.0459
25 | AGCUAGUCAGGAUAUACGAACAUGUCAGAAGACGUGAAGGGACAUGAGGAUCACCCAUGUAGAAGGGACUAGCG [74%, Web mod - With 2 more G's] | 0.0349 | 0.117
26 | AGUAUGCGAGGAUAUACAUGAGGAUCACCCAUGUGAGAGAUAAAAGUGAGAAAGAAAUGUAGAAGGCGCGUACA [JL Lego Mod 22] | 0.0988 | 0.043
27 | AGAAAGUCAGGAUAUACGAACAAGAAAAAAGACGAGAACGGACAUGAGGAUCACCCAUGUAGAAGGGACAAGAA [Diamond 13] | 0.0735 | 0.0363
28 | AGUUGGCGAGGAUAUACAUGAGGAUCACCCAUGUAAAAUAAUGAAAAAGUAGGGAAAAGUAGAAGGCGCUGACA [73%, Moding Norbert Elias, 19] | 0.0362 | 0.0967
29 | AAAAGGUGAGGAUAUACGAAAAAAAAAAAAAAAAAAAAAAAGUAGAAGGCACAUGAGGAUCACCCAUGUAAAAA [LROPPY Exclusion 4 - v01_deltaG=2.54] | 0.0313 | 0.0413
30 | AAGGGACAUGAGGAUCACCCAUGUCAGGAUAUGCUAUGGAAAAUAAAAAUAAAACAUAGCAGAAGGGAUAAAAA [Denovo 3] | 0.0202 | 0.0454
31 | AAUAACAGAGGAUAUGCAAAAAUAAGCGGAAACGCAAGAAAACAUGAGGAUCACCCAUGUAGAAGGCUGGAUAA [Tetraloop hairpin BlockHead Variations] | 0.0246 | 0.0167
32 | CUCUAGUCAGGAUAUGGAAGAAAAGAAGAGAAAGAAAAGAACCAGAAGGGACAUGAGGAUCACCCAUGUAAGAA [EteRNA is fun!] | 0.0782 | 0.0418
33 | AGCUAGUCAGGAUAUACGGACAUGUCAGGAGACGUGAAGGGACAUGAGGAUCACCCAUGUAGAAGGGACUAGCG [74%, Web mod - With 4 more G's] | 0.0355 | 0.106
34 | AAAAAACAUGAGGAUCACCCAUGUGAGGAUAUCGGAAAAGGAAAAAAAAAAAAGAAGACGAGAAGGCACAAAGA | 0.0266 | 0.0286
35 | AACAGUACAGGAUAUACAUGAGGAUCACCCAUGUAAAAAUAAAAGGGAAACUCAAAAAGUAGAAGGGUACUGGA [Moding Maslow revisited (73) 13] | 0.117 | 0.0786
36 | AAAGGAUCAGGAUAUGCGUGGAAAAAGUGUAUUCAAAAAAAACAUGAGGAUCACCCAUGUAGAAGGGAUCCAAA [Normal (20/19)] | 0.14 | 0.546
37 | AAAGGACAUGAGGAUCACCCAUGUGAGGAUAUCGGAAAAGGAAAAAAAAAAAAGAAGACGAGAAGGCACACCAA | 0.0388 | 0.0556
38 | AAAAAAGGAGGAUAUACGUACAUGUCAAAAGACGUGAAGGGACAUGAGGAUCACCCAUGUAGAAGGUCUAAAAA [JL Part Open 36] | 0.0345 | 0.0179
39 | AACAAACAUGAGGAUCACCCAUGUCAGGAUAUGCAAACAACAAACAACAAACAACAAAGCAGAAGGGACGACAA [63%, Olong, 3] | 0.0217 | 0.0375
40 | AAAACACAUGAGGAUCACCCAUGUGAGGAUAUGCUAUGGAAAUAAAAAAUAAAACAUAGCAGAAGGCGCAGGAA [Mat - Exclusion 1 - Eli mod - D47] | 0.0252 | 0.0291
41 | AAGAACAGAGGAUAUACAUGAAAGAAAGAAAAGAAAAGAAAACAUGAGGAUCACCCAUGUAGAAGGCUGAAGAA [EteRNA is fun!] | 0.0281 | 0.0251
42 | CUCAUGUGAGGAUAUCAGUAGUAAAAAAAUAAAAUUACUACUGAGAAGGCACAUGAGGAUCACCCAUGUGCCAA [EX4 337: Super Stable 37] | 0.0213 | 0.0276
43 | AAAUGACAUGAGGAUCACCCAUGUCAGGAUAUGACUUGAAAAAUAAAAUAAAAACAUGUCAGAAGGGACAUGGA [Design 51: Sub-opt GB] | 0.0239 | 0.0208
44 | AAAAAGGGAGGAUAUACAUGAGGAUCACCCAUGUGAAGGACGAAAAAGAGUCUAAAGGGUAGAAGGCCCAAAAA [65%, Moding Exclusion3-cac2, 11] | 0.0525 | 0.0434
